Measured values published in patent US8936925B2, “Reconstitution of 5-enolpyruvylshikimate-3-phosphate synthase activity by fragment complementation” (priority 2004, dated 2015).
Numbering of substitutions follows the chain as printed. Names and notes keep the numbering of the source. Like-named read-outs stand apart in the source and are kept apart here.

B1: EPSPS-G96A (protein, UniProt P0A6D3 1-427, looked up, variant G96A)
3-phosphoshikimate …: MESLTLQPIARVDGTINLPGSKSVSNRALLLAALAHGKTVLTNLLDSDDVRHMLNALTALGVSYTLSADRTRCEIIGNGGPLHAEGALELFLGNAATAMRPLAAALCLGSNDIVLTGEPRMKERPIGHLVDALRLGGAKITYLEQENYPPLRLQGGFTGGNVDVDGSVSSQFLTALLMTAPLAPEDTVIRIKGDLVSKPYIDITLNLMKTFGVEIENQHYQQFVVKGGQSYQSPGTYLVEGDASSASYFLAAAAIKGGTVKVTGIGRNSMQGDIRFADVLEKMGATICWGDDYISCTRGELNAIDMDMNHIPDAAMTIATAALFAKGTTTLRNIYNWRVKETDRLFAMATELRKVGAEVEEGHDYIRITPPEKLNFAEIATYNDHRMAMCFSLVALSDTPVTILDPKCTAKTFPDYFEQLARISQAA
B2: EPSPS: E. coli wild type full length 5-enolpyruvylshikimate-3-phosphate synthase (protein, UniProt P0A6D3 1-427, looked up)
chain: B1 3-phosphoshikimate … with A96G
modifications: full-length
notes: E. coli wild type full length 5-enolpyruvylshikimate-3-phosphate synthase
B3: N371: E. coli EPSPS N-terminal fragment, N-terminus to residue 371 (protein, UniProt P0A6D3 1-371, looked up, fragment)
chain: MESLTLQPIARVDGTINLPGSKSVSNRALLLAALAHGKTVLTNLLDSDDVRHMLNALTALGVSYTLSADRTRCEIIGNGGPLHAEGALELFLGNAGTAMRPLAAALCLGSNDIVLTGEPRMKERPIGHLVDALRLGGAKITYLEQENYPPLRLQGGFTGGNVDVDGSVSSQFLTALLMTAPLAPEDTVIRIKGDLVSKPYIDITLNLMKTFGVEIENQHYQQFVVKGGQSYQSPGTYLVEGDASSASYFLAAAAIKGGTVKVTGIGRNSMQGDIRFADVLEKMGATICWGDDYISCTRGELNAIDMDMNHIPDAAMTIATAALFAKGTTTLRNIYNWRVKETDRLFAMATELRKVGAEVEEGHDYIRITPP
B4: C74: E. coli EPSPS C-terminal fragment, residue 74 to C-terminus (protein, UniProt P0A6D3 74-427, looked up, fragment)
chain: EIIGNGGPLHAEGALELFLGNAGTAMRPLAAALCLGSNDIVLTGEPRMKERPIGHLVDALRLGGAKITYLEQENYPPLRLQGGFTGGNVDVDGSVSSQFLTALLMTAPLAPEDTVIRIKGDLVSKPYIDITLNLMKTFGVEIENQHYQQFVVKGGQSYQSPGTYLVEGDASSASYFLAAAAIKGGTVKVTGIGRNSMQGDIRFADVLEKMGATICWGDDYISCTRGELNAIDMDMNHIPDAAMTIATAALFAKGTTTLRNIYNWRVKETDRLFAMATELRKVGAEVEEGHDYIRITPPEKLNFAEIATYNDHRMAMCFSLVALSDTPVTILDPKCTAKTFPDYFEQLARISQAA
B5: N376: E. coli EPSPS N-terminal fragment, N-terminus to residue 376 (protein, UniProt P0A6D3 1-376, looked up, fragment)
chain: MESLTLQPIARVDGTINLPGSKSVSNRALLLAALAHGKTVLTNLLDSDDVRHMLNALTALGVSYTLSADRTRCEIIGNGGPLHAEGALELFLGNAGTAMRPLAAALCLGSNDIVLTGEPRMKERPIGHLVDALRLGGAKITYLEQENYPPLRLQGGFTGGNVDVDGSVSSQFLTALLMTAPLAPEDTVIRIKGDLVSKPYIDITLNLMKTFGVEIENQHYQQFVVKGGQSYQSPGTYLVEGDASSASYFLAAAAIKGGTVKVTGIGRNSMQGDIRFADVLEKMGATICWGDDYISCTRGELNAIDMDMNHIPDAAMTIATAALFAKGTTTLRNIYNWRVKETDRLFAMATELRKVGAEVEEGHDYIRITPPEKLNF
B6: N383: E. coli EPSPS N-terminal fragment, N-terminus to residue 383 (protein, UniProt P0A6D3 1-383, looked up, fragment)
chain: MESLTLQPIARVDGTINLPGSKSVSNRALLLAALAHGKTVLTNLLDSDDVRHMLNALTALGVSYTLSADRTRCEIIGNGGPLHAEGALELFLGNAGTAMRPLAAALCLGSNDIVLTGEPRMKERPIGHLVDALRLGGAKITYLEQENYPPLRLQGGFTGGNVDVDGSVSSQFLTALLMTAPLAPEDTVIRIKGDLVSKPYIDITLNLMKTFGVEIENQHYQQFVVKGGQSYQSPGTYLVEGDASSASYFLAAAAIKGGTVKVTGIGRNSMQGDIRFADVLEKMGATICWGDDYISCTRGELNAIDMDMNHIPDAAMTIATAALFAKGTTTLRNIYNWRVKETDRLFAMATELRKVGAEVEEGHDYIRITPPEKLNFAEIATYN
B7: C68: E. coli EPSPS C-terminal fragment, residue 68 to C-terminus (protein, UniProt P0A6D3 68-427, looked up, fragment)
chain: ADRTRCEIIGNGGPLHAEGALELFLGNAGTAMRPLAAALCLGSNDIVLTGEPRMKERPIGHLVDALRLGGAKITYLEQENYPPLRLQGGFTGGNVDVDGSVSSQFLTALLMTAPLAPEDTVIRIKGDLVSKPYIDITLNLMKTFGVEIENQHYQQFVVKGGQSYQSPGTYLVEGDASSASYFLAAAAIKGGTVKVTGIGRNSMQGDIRFADVLEKMGATICWGDDYISCTRGELNAIDMDMNHIPDAAMTIATAALFAKGTTTLRNIYNWRVKETDRLFAMATELRKVGAEVEEGHDYIRITPPEKLNFAEIATYNDHRMAMCFSLVALSDTPVTILDPKCTAKTFPDYFEQLARISQAA
B8: N67: E. coli EPSPS N-terminal fragment, N-terminus to residue 67 (protein, UniProt P0A6D3 1-67, looked up, fragment)
chain: MESLTLQPIARVDGTINLPGSKSVSNRALLLAALAHGKTVLTNLLDSDDVRHMLNALTALGVSYTLS
B9: N73: E. coli EPSPS N-terminal fragment, N-terminus to residue 73 (protein, UniProt P0A6D3 1-73, looked up, fragment)
chain: MESLTLQPIARVDGTINLPGSKSVSNRALLLAALAHGKTVLTNLLDSDDVRHMLNALTALGVSYTLSADRTRC
B10: C32: E. coli EPSPS C-terminal fragment, residue 32 to C-terminus (protein, UniProt P0A6D3 32-427, looked up, fragment)
chain: AALAHGKTVLTNLLDSDDVRHMLNALTALGVSYTLSADRTRCEIIGNGGPLHAEGALELFLGNAGTAMRPLAAALCLGSNDIVLTGEPRMKERPIGHLVDALRLGGAKITYLEQENYPPLRLQGGFTGGNVDVDGSVSSQFLTALLMTAPLAPEDTVIRIKGDLVSKPYIDITLNLMKTFGVEIENQHYQQFVVKGGQSYQSPGTYLVEGDASSASYFLAAAAIKGGTVKVTGIGRNSMQGDIRFADVLEKMGATICWGDDYISCTRGELNAIDMDMNHIPDAAMTIATAALFAKGTTTLRNIYNWRVKETDRLFAMATELRKVGAEVEEGHDYIRITPPEKLNFAEIATYNDHRMAMCFSLVALSDTPVTILDPKCTAKTFPDYFEQLARISQAA

Tests used:
[1] = tested on: aroA-mutant E. coli strain AB2829; assay: Growth in M63 restrictive media with different concentrations of glyphosate; format: cell-based
Description: aroA gene-mutant E. coli strains AB 2829 carrying plasmid pKU2004, pKU2006 or pKU2007 were inoculated in liquid LB medium and incubated overnight. A sample of the culture was centrifuged at 4000 rpm for 3 min and re-suspended in 0.9% physiological saline. After a further centrifugation, the supernatant was discarded. The pellets were re-suspended in physiological saline and inoculated at an initial concentration of OD600 0.04 into a liquid media comprising 0, 50 or 100 mM glyphosate for overnight culture at 37° C. Absorption (OD600) was measured at intervals.
In order to test whether the mutated EPSPS fragments perform functional complementation in vivo, plasmid pKU2105 and pKU2333 were constructed, which encode the N-terminal fragments N218-G96A and N227-G96A of E. coli EPSPS, respectively. They were introduced into aroA-mutant E. coli strain AB2829 (aroA−, from Yale University) together with their corresponding plasmids encoding C219 and C228 respectively. The growth was detected in the M63 restrictive media with different concentrations of glyphosate.

EPSPS = tested on: EPSPS
Description: (1) 95 μl substrate (50 mmol/L HEPES buffer (pH 7.5), 1 mmol/L PEP, 1 mmol/L S3P) was pre-warmed at 28 °C in an incubator for 5 min.
(2) 5 μl enzyme was added and the reaction was kept in an incubator at 28 °C for 1-20 min (depends on the enzyme activity). After that, 800 μl MG/AM/NP was added and the reaction was mixed for 1 min.
(3) 100 μl 34% sodium citrate was added and the reaction was mixed for half an hour. The OD660 was measured on a spectrometer.
The enzyme activities and the Km values to substrates of these three proteins were measured.

[2] = tested on: aroA gene-mutant E. coli strain AB2829; assay: In vivo complementation: growth on solid M63 restrictive medium; format: cell-based; parameters: key: −: failed to grow; +: able to grow; settings: for complementation condition, N-terminal: N-terminal fragment alone; for complementation condition, C-terminal: C-terminal fragment alone
From the text: The pKU2100 plasmid constructed as described above and corresponding pACYC1184 plasmid were introduced separately or together into the strain AB2829 deficient in E. coli aroA gene. Then, the strain was streaked on solid M63 restrictive medium and cultured overnight to determine the growth.
In order to test if EPSPS achieves fragment complementation after in vivo expression, genes encoding EPSPS N-terminal peptides were constructed into pACYC184, and genes encoding EPSPS C-terminal peptides were constructed into pBR322 (see the section Materials and Methods for the detailed construction method). Afterwards, these plasmids were introduced into aroA gene-mutant E. coli strain AB2829. EPSPS activity of the protein fragments encoded by these genes was determined by the growth of the strains on M63 restrictive medium.
The pACYC184 and pBR322 plasmids are able to be expressed in the same bacterial cell since they have replicons p15A and ColE1 respectively. In this regard, a pACYC184 plasmid was co-introduced into aroA gene-mutant E. coli strain AB2829 together with a corresponding pKU2100 plasmid, wherein the N-terminal peptide encoded by the pACYC184 plasmid and C-terminal peptide encoded by the pKU2100 plasmid are the two fragments divided at the same site from EPSPS. The resulting strains are streaked on M63 restrictive medium, and cultured at 37° C.
The pBR322 plasmids constructed in section 3.5 a and their relevant pACYC1184 plasmids constructed in section 3.5 b were introduced respectively or together into E. coli strain AB2829 deficient in aroA gene. Then the strains were streaked on solid M63 restrictive medium and cultured overnight to test the growth.

Row | Molecule | complementation condition, N-terminal [2] | complementation condition, C-terminal [2] | further results
1 | B1 |  |  | growth in M63 medium containing 50 mM glyphosate [1]: grew well; growth in M63 medium containing 100 mM glyphosate ([1]; 100 mM glyphosate): still grew well
2 | B2 |  |  | specific activity (EPSPS; PEP and S3P both 1.0 mM): 44 ± 2 mol/min/mg; Km (EPSPS; read-out: Km [PEP], S3P 1 mM, PEP varied from 50 to 200 μM): 14 ± 3 µM; Km (EPSPS; read-out: Km [S3P], PEP 1 mM, S3P varied from 50 to 200 μM): 45 ± 1 µM; growth in M63 medium containing 50 mM glyphosate [1]: inhibited from growth
3 | B3 | − |  | 
4 | B4 |  | − | 
5 | B5 | − |  | 
6 | B6 | − |  | 
7 | B7 |  | − | 
8 | B8 | − |  | 
9 | B9 | − |  | 
10 | B10 |  | − | 
